US4843003

Test system: Exonuclease III (Escherichia coli)
Assay: cleavage_in_vitro
Settings: 37 C, 66 mM Tris-HCl pH 8, 0.66 mM MgCl2

Substance	activity (nucleotides/min) (digested from 5' protruding end, not from SstI 3' protruding end, 14.4 kb removed per end in 32 min)	activity (nucleotides/min) (after 25 s delay, one-way digestion, no sequence preference seen)
Bacteriophage lambda DNA SstI terminal fragments (24.8 kb and 22.6 kb), 5' 12-nt protruding end	450	–
M13 mp18 with 4.5 kb EcoRI Drosophila Gart insert, SalI/SphI cut	–	450
